The target in the experiment is T1, Recombinant GST-IRTKS (mouse, UniProt Q9DBJ3 1-514).
T1 construct: IRTKS, cloned from a murine bone marrow library, subcloned into pGEX-6p-1; also called recombinant IRTKS; source: E. coli (pGEX-6p-1), recombinant
T1 sequence (looked up): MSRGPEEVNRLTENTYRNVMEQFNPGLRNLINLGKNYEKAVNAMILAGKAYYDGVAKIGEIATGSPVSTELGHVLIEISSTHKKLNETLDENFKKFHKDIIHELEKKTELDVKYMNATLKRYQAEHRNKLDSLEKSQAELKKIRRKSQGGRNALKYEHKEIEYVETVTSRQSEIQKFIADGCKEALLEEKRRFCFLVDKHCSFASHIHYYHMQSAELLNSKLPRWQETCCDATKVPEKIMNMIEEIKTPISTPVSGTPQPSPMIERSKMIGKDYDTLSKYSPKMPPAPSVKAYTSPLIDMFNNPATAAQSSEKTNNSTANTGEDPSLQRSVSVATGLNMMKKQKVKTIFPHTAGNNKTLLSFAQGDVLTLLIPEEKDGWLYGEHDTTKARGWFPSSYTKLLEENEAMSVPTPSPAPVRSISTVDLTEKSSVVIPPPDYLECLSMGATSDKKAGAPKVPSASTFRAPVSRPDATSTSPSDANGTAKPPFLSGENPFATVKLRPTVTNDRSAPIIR
Nature of the experiment: pull-down; GST pull-down: recombinant GST-tagged IRTKS or its truncations incubated with the recombinant partner. The note with it: both partners purified.

B1: Recombinant PCBP2 (natural protein, mouse, UniProt Q61990 1-362, looked up)
chain: MDTGVIEGGLNVTLTIRLLMHGKEVGSIIGKKGESVKKMREESGARINISEGNCPERIITLAGPTNAIFKAFAMIIDKLEEDISSSMTNSTAASRPPVTLRLVVPASQCGSLIGKGGCKIKEIRESTGAQVQVAGDMLPNSTERAITIAGIPQSIIECVKQICVVMLESPPKGVTIPYRPKPSSSPVIFAGGQDRYSTGSDSASFPHTTPSMCLNPDLEGPPLEAYTIQGQYAIPQPDLTKLHQLAMQQSHFPMTHGNTGFSGIESSSPEVKGYWAGLDASAQTTSHELTIPNDLIGCIIGRQGAKINEIRQMSGAQIKIANPVEGSTDRQVTITGSAASISLAQYLINVRLSSETGGMGSS
notes: PCBP2, cloned from a murine bone marrow library; source: recombinant (E. coli constructs in pGEX-6p-1 and pET-28a are described)
With B1, the binding result was “binds”.

For the origin of these results see publication PMC4569712, “IRTKS negatively regulates antiviral immunity through PCBP2 sumoylation-mediated MAVS degradation” (Nature Communications, 2015).
